Assay results published in patent publication US20040203101A1 (Human Genome Sciences, published 2004).

Legend:
human two-chain tPA [1] = biological target: T1, human two-chain tPA (human, UniProt P00750 36-310; P00750 311-562); experiment: comparison of rates of inhibition; reference PAI-1 with tPA
T1 construct: Two-chain (cleaved) form; also called tctPA

[2] = biological target: urokinase-type plasminogen activator, uPA (Serono) (UniProt P00749 21-431, limits assumed); experiment: cell-based or functional assay
[3] = biological target: tissue-type plasminogen activator, tPA (Genentech) (human, UniProt P00750 36-562); experiment: cell-based or functional assay
bovine beta trypsin [4] = biological target: T2, bovine beta trypsin (bovine, UniProt P00760 24-246); experiment: cell-based or functional assay
human two-chain tPA [5] = biological target: T1, human two-chain tPA; experiment: comparison of rates of inhibition from Table I; reference BAIT with uPA
human two-chain tPA [6] = biological target: T1, human two-chain tPA; experiment: kinetic constants for the interaction of BAIT with proteinases; method not described
[7] = biological target: T3, human high molecular weight uPA (human, UniProt P00749 21-431); experiment: as above
T3 construct: also called uPA-H

plasmin = plasmin (Homo sapiens (Human), UniProt P00747 97-580; P00747 581-810, Two chains joined by disulfide bonds after cleavage of plasminogen at Arg580-Val581 (precursor count).); experiment: as above
thrombin = thrombin (Homo sapiens (Human), UniProt P00734 328-363; P00734 364-622); experiment: as above
[8] = biological target: human low molecular weight uPA (human, UniProt P00749 156-431); experiment: as above
bovine beta trypsin [9] = biological target: T2, bovine beta trypsin; experiment: as above
human single-chain tPA = biological target: T4, human single-chain tPA (human, UniProt P00750 36-562); experiment: as above
T4 construct: also called sctPA

human two-chain tPA [10] = biological target: T1, human two-chain tPA; experiment: comparison of rates of inhibition; reference PN-1 with tPA

T1 sequence (P00750 36-310 limits assumed, chain 1 of 2): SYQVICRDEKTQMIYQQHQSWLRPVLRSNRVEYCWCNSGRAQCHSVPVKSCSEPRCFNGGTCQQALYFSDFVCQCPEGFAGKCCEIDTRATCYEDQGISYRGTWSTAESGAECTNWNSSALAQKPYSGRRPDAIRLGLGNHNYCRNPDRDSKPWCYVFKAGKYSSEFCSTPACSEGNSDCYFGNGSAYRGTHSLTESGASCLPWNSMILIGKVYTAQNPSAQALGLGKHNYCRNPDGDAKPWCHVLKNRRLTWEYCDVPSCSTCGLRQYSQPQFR
T1 sequence (P00750 311-562 limits assumed, chain 2 of 2): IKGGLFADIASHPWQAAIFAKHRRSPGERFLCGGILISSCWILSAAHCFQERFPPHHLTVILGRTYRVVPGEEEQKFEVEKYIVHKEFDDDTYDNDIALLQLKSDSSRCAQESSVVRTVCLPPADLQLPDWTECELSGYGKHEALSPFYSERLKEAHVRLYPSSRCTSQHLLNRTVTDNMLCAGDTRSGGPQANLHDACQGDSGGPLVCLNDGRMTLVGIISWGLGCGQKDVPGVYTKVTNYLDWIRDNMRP
T2 sequence (P00760 24-246 limits assumed): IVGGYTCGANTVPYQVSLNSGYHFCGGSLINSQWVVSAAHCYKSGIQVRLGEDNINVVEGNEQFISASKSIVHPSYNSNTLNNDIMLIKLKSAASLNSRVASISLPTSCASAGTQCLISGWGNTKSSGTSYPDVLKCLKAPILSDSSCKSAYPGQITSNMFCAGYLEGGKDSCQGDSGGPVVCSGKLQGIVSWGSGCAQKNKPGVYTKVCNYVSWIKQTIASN
T4 sequence (P00750 36-562 limits assumed): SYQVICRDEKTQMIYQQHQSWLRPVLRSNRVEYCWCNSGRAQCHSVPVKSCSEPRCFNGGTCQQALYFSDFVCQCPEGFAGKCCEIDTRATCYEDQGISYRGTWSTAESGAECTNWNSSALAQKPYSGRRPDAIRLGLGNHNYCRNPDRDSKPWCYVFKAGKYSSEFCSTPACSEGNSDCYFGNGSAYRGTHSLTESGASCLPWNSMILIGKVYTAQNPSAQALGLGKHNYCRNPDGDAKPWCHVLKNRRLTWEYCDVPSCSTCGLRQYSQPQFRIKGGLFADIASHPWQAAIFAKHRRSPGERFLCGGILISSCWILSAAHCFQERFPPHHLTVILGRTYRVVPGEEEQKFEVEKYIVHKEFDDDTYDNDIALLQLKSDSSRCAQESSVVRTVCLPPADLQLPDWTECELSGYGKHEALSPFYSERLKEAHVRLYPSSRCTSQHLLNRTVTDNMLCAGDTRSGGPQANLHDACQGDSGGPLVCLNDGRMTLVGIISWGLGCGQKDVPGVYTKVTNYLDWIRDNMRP
Chain of plasmin (P00747 97-580 limits assumed, form in doubt, chain 1 of 2): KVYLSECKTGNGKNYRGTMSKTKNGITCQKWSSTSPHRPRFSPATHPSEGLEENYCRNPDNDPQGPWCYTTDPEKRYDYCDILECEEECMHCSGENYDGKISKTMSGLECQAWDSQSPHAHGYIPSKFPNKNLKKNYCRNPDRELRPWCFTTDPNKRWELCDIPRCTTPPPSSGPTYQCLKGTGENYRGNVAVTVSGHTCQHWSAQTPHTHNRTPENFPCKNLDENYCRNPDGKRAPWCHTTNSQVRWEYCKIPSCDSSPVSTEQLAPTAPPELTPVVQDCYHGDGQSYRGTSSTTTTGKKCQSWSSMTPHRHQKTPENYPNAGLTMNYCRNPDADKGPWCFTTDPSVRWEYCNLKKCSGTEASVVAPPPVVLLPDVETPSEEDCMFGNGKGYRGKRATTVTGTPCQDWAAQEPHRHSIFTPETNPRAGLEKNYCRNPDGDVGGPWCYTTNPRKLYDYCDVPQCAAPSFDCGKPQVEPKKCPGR
Chain of plasmin (P00747 581-810 limits assumed, form in doubt, chain 2 of 2): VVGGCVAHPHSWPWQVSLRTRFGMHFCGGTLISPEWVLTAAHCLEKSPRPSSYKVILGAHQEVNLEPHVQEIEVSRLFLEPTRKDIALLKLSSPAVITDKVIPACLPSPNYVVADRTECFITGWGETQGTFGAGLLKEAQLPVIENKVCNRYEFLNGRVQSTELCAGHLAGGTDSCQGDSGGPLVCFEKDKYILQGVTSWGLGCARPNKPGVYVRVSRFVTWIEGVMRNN
Chain of tissue-type plasminogen activator, tPA (Genentech) (P00750 36-562 limits assumed): as the sequence (P00750 36-562 limits assumed) above

B1: human BAIT (Brain-Associated Inhibitor of Tissue-Type Plasminogen Activator), mature protein expressed in baculovirus/Sf9 cells and purified (other)
chain: ATFPEEAIADLSVNMYNRLRATGEDENILFSPLSIALAMGMMELGAQGSTQKEIRHSMGYDSLKNGEEFSFLKEFSNMVTAKESQYVMKIANSLFVQNGFHVNEEFLQMMKKYFNAAVNHVDFSQNVAVANYINKWVENNTNNLVKDLVSPRDFDAATYLALINAVYFKGNWKSQFRPENTRTFSFTKDDESEVQIPMMYQQGEFYYGEFSDGSNEAGGIYQVLEIPYEGDEISMMLVLSRQEVPLATLEPLVKAQLVEEWANSVKKQKVEVYLPRFTVEQEIDLKDVLKALGITEIFIKDANLTGLSDNKEIFLSKAIHKSFLEVNEEGSEAAAVSGMIAISRMAVLYPQVIVDHPFFFLIRNRRTGTILFMGRVMHPETMNTSGHDFEEL
modifications: glycosylated (positions not stated)
notes: The preparation has mixed N-termini (also called BAIT protein); neural serpin
B1 was tested, and the “fold slower reaction with tPA than PAI-1” value (human two-chain tPA [1]) was roughly 30 fold, the “half-maximal inhibitory concentration (IC50) of proteolytic activity, single step chromogenic assay” value (“half-maximal inhibitory concentration” below) [2] was 1 µM and the “half-maximal inhibitory concentration” value [3] was 200 nM. The “half-maximal inhibitory concentration” value (bovine beta trypsin [4]) was 0.7 µM, the “fold faster rate of inhibition of tPA than of uPA” value (human two-chain tPA [5]) was roughly 25 fold and the “K” value (human two-chain tPA [6]) was 0.12 µM. For the same binder, the “k” value (human two-chain tPA [6]) was 0.078 s⁻¹, the “ki” value (human two-chain tPA [6]) was 620000 M⁻¹ s⁻¹ and the “K” value [7] was 0.2 µM. The “k” value [7] was 0.005 s⁻¹, the “ki” value [7] was 25000 M⁻¹ s⁻¹ and the “K” value (plasmin) was 0.15 µM. For the same binder, the “k” value (plasmin) was 5.2e-05 s⁻¹, the “ki” value (plasmin) was 360 M⁻¹ s⁻¹ and the “K” value (thrombin) was 0.64 µM. For the same binder, the “k” value (thrombin) was 0.000131 s⁻¹, the “ki” value (thrombin) was 210 M⁻¹ s⁻¹ and the “K” value [8] was 1.4 µM. The “k” value [8] was 0.013 s⁻¹, the “ki” value [8] was 9200 M⁻¹ s⁻¹ and the “K” value (bovine beta trypsin [9]) was 0.16 µM. The “k” value (bovine beta trypsin [9]) was 0.0096 s⁻¹, the “ki” value (bovine beta trypsin [9]) was 59000 M⁻¹ s⁻¹ and the “K” value (human single-chain tPA) was 2.1 µM. For the same binder, the “k” value (human single-chain tPA) was 0.17 s⁻¹, the “ki” value (human single-chain tPA) was 80000 M⁻¹ s⁻¹ and the “fold faster reaction with tPA than PN-1” value (human two-chain tPA [10]) was roughly 20 fold.
